From article PMC8307404, “Crystal Structure-Guided Design of Bisubstrate Inhibitors and Photoluminescent Probes for Protein Kinases of the PIM Family” (Molecules, 2021)
Square brackets hold non-standard residues; d marks the D form. Peptide text beside a SMILES is read from it. * marks the point of attachment. X3 = O=C(CCCCCNCc1nc2c(sc3cc(Br)cnc32)c(=O)[nH]1)*

Experiments:
Experiment in all cases: Kinase profiling (radiometric filter-binding)
Format in all cases: biochemical
HIPK2 = HIPK2 (Homo sapiens, UniProt Q9H2X6); conditions: HIPK2, 1 µM inhibitor; read-out: Residual activity, %
Outline: (§1)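 Filter-binding radiometric assays of human kinases measure the fraction of activity that persists with 1 µM inhibitor (final). ATP is supplied at KM or lower for each target.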

CHK2 = CHK2 (Homo sapiens, UniProt O96017); conditions: CHK2, 1 µM inhibitor; read-out: Residual activity, %
Outline: as §1

MKK6 = target: T1, MKK6 (Homo sapiens, UniProt P52564); conditions: MKK6, 1 µM inhibitor; read-out: Residual activity, %
T1 sequence (P52564 1-334): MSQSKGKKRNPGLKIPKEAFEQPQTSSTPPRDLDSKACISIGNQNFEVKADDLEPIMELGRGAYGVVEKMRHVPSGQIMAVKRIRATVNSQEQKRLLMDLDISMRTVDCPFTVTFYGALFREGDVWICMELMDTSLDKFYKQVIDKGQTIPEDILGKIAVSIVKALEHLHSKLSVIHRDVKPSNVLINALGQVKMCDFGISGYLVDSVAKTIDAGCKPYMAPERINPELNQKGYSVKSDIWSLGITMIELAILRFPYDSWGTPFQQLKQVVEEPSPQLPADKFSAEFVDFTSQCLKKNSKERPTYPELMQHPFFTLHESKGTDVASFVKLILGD
Outline: as §1

SYK = SYK (Homo sapiens, UniProt P43405); conditions: 1 µM inhibitor, read-out: Residual activity, %
Outline: as §1

MST2 = target: T2, MST2 (Homo sapiens, UniProt Q13188); conditions: MST2, 1 µM inhibitor; read-out: Residual activity, %
T2 sequence (Q13188 1-491): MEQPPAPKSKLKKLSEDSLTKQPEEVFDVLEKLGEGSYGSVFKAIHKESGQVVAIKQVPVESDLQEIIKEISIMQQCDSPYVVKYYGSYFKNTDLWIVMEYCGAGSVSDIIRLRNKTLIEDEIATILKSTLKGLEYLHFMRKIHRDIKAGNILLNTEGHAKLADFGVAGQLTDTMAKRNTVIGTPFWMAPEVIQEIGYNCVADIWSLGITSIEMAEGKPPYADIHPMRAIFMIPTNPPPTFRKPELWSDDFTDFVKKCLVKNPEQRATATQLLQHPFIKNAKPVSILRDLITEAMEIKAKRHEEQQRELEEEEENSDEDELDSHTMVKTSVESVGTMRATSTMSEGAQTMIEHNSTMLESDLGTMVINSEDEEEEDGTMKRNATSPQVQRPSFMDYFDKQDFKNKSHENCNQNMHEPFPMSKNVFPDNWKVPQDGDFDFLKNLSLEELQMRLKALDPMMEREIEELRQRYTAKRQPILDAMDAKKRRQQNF
Outline: as §1

IKK = target: T3, IKK (Homo sapiens, UniProt O14920); conditions: first of two IKK lines (Greek letter lost), 1 µM inhibitor, read-out: Residual activity, %
T3 sequence (O14920 1-756): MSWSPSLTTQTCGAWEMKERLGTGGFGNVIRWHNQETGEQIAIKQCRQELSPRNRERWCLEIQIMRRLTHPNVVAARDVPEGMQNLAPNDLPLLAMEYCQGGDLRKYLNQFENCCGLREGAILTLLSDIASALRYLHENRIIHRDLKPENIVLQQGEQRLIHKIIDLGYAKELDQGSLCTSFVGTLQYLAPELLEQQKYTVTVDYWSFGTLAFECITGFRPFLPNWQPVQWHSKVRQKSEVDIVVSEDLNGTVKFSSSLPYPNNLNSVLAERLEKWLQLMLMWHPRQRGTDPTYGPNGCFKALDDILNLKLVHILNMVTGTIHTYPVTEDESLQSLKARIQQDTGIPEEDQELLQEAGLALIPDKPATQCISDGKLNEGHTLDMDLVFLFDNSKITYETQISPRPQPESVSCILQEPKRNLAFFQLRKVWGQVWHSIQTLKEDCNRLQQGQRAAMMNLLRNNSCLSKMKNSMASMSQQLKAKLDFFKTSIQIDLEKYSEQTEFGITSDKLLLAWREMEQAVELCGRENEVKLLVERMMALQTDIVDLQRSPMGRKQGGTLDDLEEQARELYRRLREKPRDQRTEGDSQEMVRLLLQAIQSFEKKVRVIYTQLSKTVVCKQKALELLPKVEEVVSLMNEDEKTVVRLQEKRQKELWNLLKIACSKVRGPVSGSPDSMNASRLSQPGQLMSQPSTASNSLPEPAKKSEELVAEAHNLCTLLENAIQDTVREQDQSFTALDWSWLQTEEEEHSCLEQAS
Outline: as §1

FGF-R1 = FGF-R1 (Homo sapiens, UniProt P11362); conditions: FGF-R1, 1 µM inhibitor; read-out: Residual activity, %
Outline: as §1

IGF-1R = IGF-1R (Homo sapiens, UniProt P08069); conditions: 1 µM inhibitor, read-out: Residual activity, %
Outline: as §1

MLK1 = MLK1 (Homo sapiens, UniProt P80192); conditions: MLK1, 1 µM inhibitor; read-out: Residual activity, %
Outline: as §1

BRK = BRK (Homo sapiens, UniProt Q13882); conditions: 1 µM inhibitor, read-out: Residual activity, %
Outline: as §1

Sequence of MLK1 (P80192 whole entry): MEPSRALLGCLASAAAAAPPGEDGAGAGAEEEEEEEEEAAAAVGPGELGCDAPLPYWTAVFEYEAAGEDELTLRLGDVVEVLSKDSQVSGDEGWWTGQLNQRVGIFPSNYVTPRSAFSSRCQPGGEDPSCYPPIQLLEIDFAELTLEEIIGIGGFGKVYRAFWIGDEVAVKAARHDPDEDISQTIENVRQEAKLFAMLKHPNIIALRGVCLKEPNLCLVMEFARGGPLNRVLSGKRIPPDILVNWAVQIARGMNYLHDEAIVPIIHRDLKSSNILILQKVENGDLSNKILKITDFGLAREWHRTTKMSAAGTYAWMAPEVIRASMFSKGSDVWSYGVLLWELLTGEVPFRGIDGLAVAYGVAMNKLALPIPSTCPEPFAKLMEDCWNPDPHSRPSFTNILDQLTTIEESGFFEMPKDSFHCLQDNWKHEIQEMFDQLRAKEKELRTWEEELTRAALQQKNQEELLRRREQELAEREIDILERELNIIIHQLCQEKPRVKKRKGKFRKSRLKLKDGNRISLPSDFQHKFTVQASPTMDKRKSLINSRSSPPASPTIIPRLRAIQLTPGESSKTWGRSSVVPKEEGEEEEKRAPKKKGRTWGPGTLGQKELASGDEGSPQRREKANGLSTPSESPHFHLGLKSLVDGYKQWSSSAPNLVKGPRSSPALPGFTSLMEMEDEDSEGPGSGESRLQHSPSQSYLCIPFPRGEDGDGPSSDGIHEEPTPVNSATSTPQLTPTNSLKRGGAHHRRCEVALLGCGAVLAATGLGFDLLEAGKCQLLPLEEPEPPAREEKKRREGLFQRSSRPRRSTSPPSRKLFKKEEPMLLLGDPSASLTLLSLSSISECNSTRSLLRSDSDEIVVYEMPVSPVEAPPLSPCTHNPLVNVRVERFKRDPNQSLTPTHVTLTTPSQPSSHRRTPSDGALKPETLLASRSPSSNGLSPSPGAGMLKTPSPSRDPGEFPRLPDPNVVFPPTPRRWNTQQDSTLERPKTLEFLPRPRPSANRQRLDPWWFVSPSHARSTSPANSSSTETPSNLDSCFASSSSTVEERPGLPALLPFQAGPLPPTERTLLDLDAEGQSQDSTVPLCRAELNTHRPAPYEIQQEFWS
Sequence of IGF-1R (P08069 31-1367): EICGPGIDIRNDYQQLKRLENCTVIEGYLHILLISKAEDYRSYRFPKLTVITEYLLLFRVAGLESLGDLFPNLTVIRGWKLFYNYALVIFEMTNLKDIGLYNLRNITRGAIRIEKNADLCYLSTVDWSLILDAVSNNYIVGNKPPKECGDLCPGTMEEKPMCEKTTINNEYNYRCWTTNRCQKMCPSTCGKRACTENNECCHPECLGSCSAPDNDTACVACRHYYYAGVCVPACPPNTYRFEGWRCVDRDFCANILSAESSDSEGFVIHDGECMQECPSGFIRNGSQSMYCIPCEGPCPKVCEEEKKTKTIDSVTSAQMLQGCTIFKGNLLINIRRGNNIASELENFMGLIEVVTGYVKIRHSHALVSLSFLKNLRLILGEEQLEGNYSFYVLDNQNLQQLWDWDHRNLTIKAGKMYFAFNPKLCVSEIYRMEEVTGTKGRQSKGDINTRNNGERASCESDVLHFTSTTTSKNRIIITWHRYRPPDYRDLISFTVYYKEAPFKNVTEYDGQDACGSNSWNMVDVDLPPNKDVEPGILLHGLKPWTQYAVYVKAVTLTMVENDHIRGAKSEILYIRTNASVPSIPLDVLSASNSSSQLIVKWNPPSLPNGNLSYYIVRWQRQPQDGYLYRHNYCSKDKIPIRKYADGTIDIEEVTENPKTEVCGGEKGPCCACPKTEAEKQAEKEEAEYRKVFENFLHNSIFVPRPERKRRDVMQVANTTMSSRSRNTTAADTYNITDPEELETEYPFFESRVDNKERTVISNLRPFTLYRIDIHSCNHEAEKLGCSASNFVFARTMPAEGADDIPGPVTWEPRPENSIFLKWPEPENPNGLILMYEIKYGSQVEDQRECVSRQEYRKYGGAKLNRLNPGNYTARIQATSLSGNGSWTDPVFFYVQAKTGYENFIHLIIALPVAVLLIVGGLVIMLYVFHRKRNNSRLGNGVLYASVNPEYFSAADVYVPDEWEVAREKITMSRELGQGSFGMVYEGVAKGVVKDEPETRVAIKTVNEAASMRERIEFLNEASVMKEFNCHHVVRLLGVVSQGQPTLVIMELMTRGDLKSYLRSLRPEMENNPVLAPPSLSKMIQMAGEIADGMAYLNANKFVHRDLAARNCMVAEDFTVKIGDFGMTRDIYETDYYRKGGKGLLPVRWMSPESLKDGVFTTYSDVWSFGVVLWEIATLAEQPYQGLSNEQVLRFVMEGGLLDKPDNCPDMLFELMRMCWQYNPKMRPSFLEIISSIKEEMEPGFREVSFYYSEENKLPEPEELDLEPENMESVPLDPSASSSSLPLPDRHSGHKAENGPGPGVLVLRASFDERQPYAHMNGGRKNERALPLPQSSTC
Sequence of HIPK2 (Q9H2X6 whole entry): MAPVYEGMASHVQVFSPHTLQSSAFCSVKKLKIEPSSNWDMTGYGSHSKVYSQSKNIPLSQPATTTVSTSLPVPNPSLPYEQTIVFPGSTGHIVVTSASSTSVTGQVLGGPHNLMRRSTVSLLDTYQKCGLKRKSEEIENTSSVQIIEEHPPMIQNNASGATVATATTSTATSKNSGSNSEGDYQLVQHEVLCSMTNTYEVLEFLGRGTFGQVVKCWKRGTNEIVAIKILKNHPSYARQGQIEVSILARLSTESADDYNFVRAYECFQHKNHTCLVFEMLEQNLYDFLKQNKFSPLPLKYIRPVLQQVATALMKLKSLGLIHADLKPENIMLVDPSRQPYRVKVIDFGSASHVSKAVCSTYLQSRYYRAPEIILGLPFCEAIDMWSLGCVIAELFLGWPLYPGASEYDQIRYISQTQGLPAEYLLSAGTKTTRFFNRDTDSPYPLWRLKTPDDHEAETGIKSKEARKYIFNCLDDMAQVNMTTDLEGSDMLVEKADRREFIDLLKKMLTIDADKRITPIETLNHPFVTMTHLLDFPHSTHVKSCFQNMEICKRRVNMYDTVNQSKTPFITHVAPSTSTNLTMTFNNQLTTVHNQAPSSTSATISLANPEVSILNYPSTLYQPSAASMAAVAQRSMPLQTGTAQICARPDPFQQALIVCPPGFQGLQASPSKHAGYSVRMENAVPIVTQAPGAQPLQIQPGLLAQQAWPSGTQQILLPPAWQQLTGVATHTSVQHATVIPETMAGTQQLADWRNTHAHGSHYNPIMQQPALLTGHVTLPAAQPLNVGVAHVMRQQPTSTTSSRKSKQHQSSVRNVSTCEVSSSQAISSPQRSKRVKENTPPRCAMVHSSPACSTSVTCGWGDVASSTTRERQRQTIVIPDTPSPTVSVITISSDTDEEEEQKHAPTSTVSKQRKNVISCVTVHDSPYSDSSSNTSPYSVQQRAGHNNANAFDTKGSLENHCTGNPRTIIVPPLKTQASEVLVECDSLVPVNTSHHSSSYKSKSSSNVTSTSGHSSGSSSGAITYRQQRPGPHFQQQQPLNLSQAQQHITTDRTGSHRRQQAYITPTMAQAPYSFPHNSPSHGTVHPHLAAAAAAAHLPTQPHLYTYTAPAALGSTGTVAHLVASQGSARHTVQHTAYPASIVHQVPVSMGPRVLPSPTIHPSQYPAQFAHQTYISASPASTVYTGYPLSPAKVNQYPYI
Sequence of CHK2 (O96017 whole entry): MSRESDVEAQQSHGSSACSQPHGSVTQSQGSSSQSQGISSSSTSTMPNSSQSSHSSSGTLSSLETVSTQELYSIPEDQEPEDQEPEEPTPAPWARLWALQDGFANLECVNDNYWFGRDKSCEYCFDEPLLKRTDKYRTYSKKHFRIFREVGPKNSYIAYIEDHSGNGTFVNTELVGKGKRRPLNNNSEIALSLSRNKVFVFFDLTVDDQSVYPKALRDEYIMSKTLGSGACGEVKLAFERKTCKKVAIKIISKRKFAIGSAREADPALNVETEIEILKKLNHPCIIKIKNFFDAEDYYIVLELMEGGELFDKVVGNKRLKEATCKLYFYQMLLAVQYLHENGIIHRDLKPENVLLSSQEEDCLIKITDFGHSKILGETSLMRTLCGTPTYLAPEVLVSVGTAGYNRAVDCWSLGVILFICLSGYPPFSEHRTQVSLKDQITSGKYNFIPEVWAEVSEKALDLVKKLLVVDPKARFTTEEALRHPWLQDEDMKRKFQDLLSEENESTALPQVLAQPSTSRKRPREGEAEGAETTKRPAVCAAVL
Sequence of BRK (Q13882 whole entry): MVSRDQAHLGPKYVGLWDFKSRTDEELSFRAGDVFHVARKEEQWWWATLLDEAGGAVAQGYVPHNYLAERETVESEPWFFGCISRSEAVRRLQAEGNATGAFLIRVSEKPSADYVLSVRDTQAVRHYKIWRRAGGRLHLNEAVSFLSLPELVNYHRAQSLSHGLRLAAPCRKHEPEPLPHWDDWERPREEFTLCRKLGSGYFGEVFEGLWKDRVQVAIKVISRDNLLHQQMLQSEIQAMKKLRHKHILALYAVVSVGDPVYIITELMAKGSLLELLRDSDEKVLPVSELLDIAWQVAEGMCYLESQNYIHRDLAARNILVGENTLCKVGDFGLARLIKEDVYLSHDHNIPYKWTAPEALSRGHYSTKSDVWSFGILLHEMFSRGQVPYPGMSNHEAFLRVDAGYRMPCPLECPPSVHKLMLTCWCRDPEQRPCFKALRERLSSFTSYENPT

SMILES	remaining activity at 1 µM (HIPK2)	remaining activity at 1 µM (CHK2)	remaining activity at 1 µM (MKK6)	remaining activity at 1 µM (SYK)	remaining activity at 1 µM (MST2)	remaining activity at 1 µM (IKK)	remaining activity at 1 µM (FGF-R1)	remaining activity at 1 µM (IGF-1R)	remaining activity at 1 µM (MLK1)	remaining activity at 1 µM (BRK)
N=C(N)NCCC[C@@H](NC(=O)CNC(=O)[C@@H](CCCNC(=N)N)NC(=O)[C@@H](CCCNC(=N)N)NC(=O)CCCCCCCNCc1nc2c(sc3cc(Br)cnc32)c(=O)[nH]1)C(=O)N[C@H](CCCCN)C(N)=O [Compound 1, BPTP-Aoc-(D-Arg)2-Gly-D-Arg-D-Lys-NH2]	103 ± 13%	107 ± 9%	122 ± 2%	133 ± 15%	115 ± 11%	97%	142 ± 8%	77 ± 8%	112 ± 13%	126 ± 8%
N=C(N)NCCC[C@@H](NC(=O)CCCCCNCc1nc2c(sc3cc(Br)cnc32)c(=O)[nH]1)C(=O)N[C@H](CCCNC(=N)N)C(=O)N[C@H](CCCNC(=N)N)C(=O)N[C@H](CCCNC(=N)N)C(=O)N[C@H](CCCNC(=N)N)C(=O)N[C@H](CCCNC(=N)N)C(=O)N[C@H](CCCCN)C(N)=O [ARC-3126, BPTP-Ahx-(D-Arg)6-D-Lys-NH2] (X3-[dR][dR][dR][dR][dR][dR][dK]-NH2)	75 ± 15%	76 ± 15%	105 ± 1%	75 ± 20%	106 ± 6%	104 ± 2%	102 ± 3%	114 ± 24%	122 ± 21%	81 ± 4%
N=C(N)NCCC[C@@H](NC(=O)CCCCCNC(=O)Cn1cnc2c(I)c(I)c(I)c(I)c21)C(=O)N[C@H](CCCNC(=N)N)C(=O)N[C@H](CCCNC(=N)N)C(=O)N[C@H](CCCNC(=N)N)C(=O)N[C@H](CCCNC(=N)N)C(=O)N[C@H](CCCNC(=N)N)C(=O)N[C@H](CCCCN)C(N)=O [ARC-3125, TIBI-CH2-C(=O)-Ahx-(D-Arg)6-D-Lys-NH2]	16 ± 2%	116 ± 16%	110 ± 10%	94 ± 10%	73 ± 1%	80 ± 1%	100 ± 19%		100 ± 8%	82 ± 41%
N=C(N)NCCC[C@@H](NC(=O)CNC(=O)[C@@H](CCCNC(=N)N)NC(=O)[C@@H](CCCNC(=N)N)NC(=O)CCCCCCCNCc1nc2c(sc3ccc(Br)cc32)c(=O)[nH]1)C(=O)N[C@H](CCCCN)C(N)=O [Compound 2, BBTP-Aoc-(D-Arg)2-Gly-D-Arg-D-Lys-NH2]	48 ± 2%	103 ± 2%	121 ± 3%	123 ± 3%	128 ± 35%	100 ± 11%	126 ± 10%	91 ± 6%	98 ± 8%	114 ± 11%
N=C(N)NCCC[C@@H](NC(=O)CNC(=O)[C@@H](CCCNC(=N)N)NC(=O)[C@@H](CCCNC(=N)N)NC(=O)Cn1cc(CNCc2nc3c(sc4ccc(Br)cc43)c(=O)[nH]2)nn1)C(=O)N[C@H](CCCCN)C(N)=O [Compound 3, BBTP-Amt-(D-Arg)2-Gly-D-Arg-D-Lys-NH2]	50 ± 7%	52 ± 10%	126 ± 10%	114 ± 2%	84 ± 6%	90 ± 6%	110 ± 2%	58 ± 7%	101 ± 9%	114 ± 13%
